According to the supplement of paper PMC7125110:
± gives the standard error. For some assays here: This sample holds only a part of the variants without activity.

B1: glmS ribozyme (parent)
chain: AUAAAAGCGCCAGAACUACAGAAAUGUAGUUGACGAGGAGGAGGUUUAUCGAAUUUUCGGCGGAUGCCUCCAAA

Experiments:
Settings in all cases: with glucosamine-6-phosphate
[1] = variants of: B1; assay: kcat; higher = faster cleavage; RNA array
In short: (§1)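 In situ transcription by E. coli RNA polymerase produced barcoded ribozyme variants on sequenced MiSeq chips, and a hybridised Cy3 probe tracked them at 37 °C. Glucosamine-6-phosphate was flowed in at 40 μM to 10 mM in HEPES/KCl/Mg(OAc)2 buffer. kcat and KM were taken from weighted Michaelis–Menten fits of kobs values from exponential decay fits.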

[2] = variants of: B1; assay: KM; higher = weaker cofactor use; RNA array
In short: as §1

[3] = variants of: B1; assay: self-cleavage kobs at 160 uM GlcN6P; higher = faster cleavage; RNA array
In short: as §1

[4] = variants of: B1; assay: self-cleavage kobs at 640 uM GlcN6P; higher = faster cleavage; RNA array
In short: as §1

[5] = variants of: B1; assay: self-cleavage kobs at 2500 uM GlcN6P; higher = faster cleavage; RNA array
In short: as §1

[6] = variants of: B1; assay: self-cleavage kobs at 10000 uM GlcN6P; higher = faster cleavage; RNA array
In short: as §1

[7] = variants of: B1; assay: self-cleavage kobs at 40 uM GlcN6P; higher = faster cleavage; RNA array
In short: as §1

Variant	kcat [1] [s⁻¹]	KM [2] [µM]	self-cleavage kobs at 160 uM GlcN6P [3] [s⁻¹]	self-cleavage kobs at 640 uM GlcN6P [4] [s⁻¹]	self-cleavage kobs at 2500 uM GlcN6P [5] [s⁻¹]	self-cleavage kobs at 10000 uM GlcN6P [6] [s⁻¹]	self-cleavage kobs at 40 uM GlcN6P [7] [s⁻¹]
G37A C71G	0.000188 ± 2.3e-05	2370 ± 690	3.34e-05 ± 1.4e-05	4.08e-05 ± 7.8e-06	9.24e-05 ± 9.5e-06	0.000155 ± 1.4e-05	
A36C U49G	0.00221 ± 0.00064			0.000416 ± 0.00011	0.000851 ± 0.00021	0.00186 ± 0.00031	6.21e-05 ± 2.5e-05
A36G C70A	1.58e-05 ± 4.3e-06						
G37C G60C	< 1e-05					< 1e-05	
G37C U47C	< 1e-05		< 1e-05				< 1e-05
G35A C50G U69A	0.000277 ± 5.3e-05		0.000465 ± 0.00015	0.000501 ± 0.00021	0.000206 ± 7.8e-05	0.000278 ± 5.3e-05	0.000149 ± 3.4e-05
G37U C70A	1.53e-05 ± 2e-06						
C34U G38A C71U	< 1e-05		< 1e-05		< 1e-05		< 1e-05
G35C C50G G60U	3.38e-05 ± 1.4e-05		5.86e-05 ± 1.9e-05				
A39U G62A	< 1e-05		< 1e-05	< 1e-05			< 1e-05
G40A C70G	0.00031 ± 9.1e-05			0.000105 ± 1.9e-05	0.000394 ± 0.00012	0.000244 ± 6.4e-05	
G38U C61G	< 1e-05		< 1e-05				
A36U C68G	0.000198 ± 5.7e-05			0.000275 ± 3.5e-05		0.000121 ± 3.4e-05	7.38e-05 ± 1.2e-05
G40A A52U	0.000228 ± 7.9e-05				9.49e-05 ± 1.5e-05	0.000146 ± 2.3e-05	
G35A G38A	< 1e-05						
G37A G40U	0.000159 ± 2e-05	2050 ± 490		3.99e-05 ± 7.5e-06	8.45e-05 ± 9.3e-06	0.000151 ± 4.4e-05	
G37A G40C	0.000207 ± 4.1e-05	2180 ± 880		4.22e-05 ± 1.3e-05	0.00015 ± 3.5e-05	0.000157 ± 3.4e-05	
A36G	2.12e-05 ± 2.6e-06				1.72e-05 ± 3e-06	1.89e-05 ± 1.4e-06	
A36C	< 1e-05		< 1e-05				
A39G A42C	3.82e-05 ± 3.7e-06				3e-05 ± 1.4e-05	3.4e-05 ± 8e-06	
G37C U49G	< 1e-05						

Variant	kcat [1] [s⁻¹]	KM [2] [µM]	self-cleavage kobs at 160 uM GlcN6P [3] [s⁻¹]	self-cleavage kobs at 640 uM GlcN6P [4] [s⁻¹]	self-cleavage kobs at 2500 uM GlcN6P [5] [s⁻¹]	self-cleavage kobs at 10000 uM GlcN6P [6] [s⁻¹]	self-cleavage kobs at 40 uM GlcN6P [7] [s⁻¹]
G38A C50G G63U C71A	4.03e-05 ± 1.2e-05		7.25e-05 ± 2.2e-05	4.7e-05 ± 2.1e-05	3.94e-05 ± 1.3e-05		
G37U A53G	1.16e-05 ± 3.4e-06						
A36U G66A	< 1e-05		< 1e-05				
G37A U65C	0.000108 ± 1.4e-05	2300 ± 1100			6.65e-05 ± 1.7e-05	8.61e-05 ± 1.1e-05	
G37U C71G	1.72e-05 ± 4.2e-06						
G37A A39C	0.00108 ± 0.0001	4350 ± 560	3.21e-05 ± 1.1e-05	0.000144 ± 1.8e-05	0.000399 ± 6e-05	0.000742 ± 0.00013	
G37A A39G	0.00599 ± 0.00079	3900 ± 740	0.000243 ± 4.5e-05	0.00068 ± 0.00012	0.00235 ± 0.0003	0.00437 ± 0.00039	6.85e-05 ± 7.9e-06
A39U A52U	0.000201 ± 4.1e-05	3930 ± 1900			9.27e-05 ± 1.2e-05	0.000141 ± 1.1e-05	
G37C U69G	2.05e-05 ± 4e-06						
A39G U69G	0.000101 ± 1.5e-05		0.000114 ± 3.2e-05	7.75e-05 ± 1.3e-05	0.000143 ± 1.7e-05	9.32e-05 ± 1e-05	4.07e-05 ± 1.3e-05
G38C C50U	< 1e-05		< 1e-05	< 1e-05		< 1e-05	
G38C C50G	1.28e-05 ± 1.9e-06						
A39G C58A	0.00088 ± 0.00013	4140 ± 1100	4.38e-05 ± 1.9e-05	0.000129 ± 3e-05	0.000275 ± 6.4e-05	0.000642 ± 7.7e-05	
C34G C68U	1.7e-05 ± 5.3e-06						
G35A G37A G44U U49G C67G	< 1e-05				< 1e-05		
A36U U47G G51U	< 1e-05					< 1e-05	
A39C A53U	0.00502 ± 0.0011	2730 ± 760	0.000227 ± 3.4e-05	0.000952 ± 0.00013	0.00344 ± 0.00044	0.00367 ± 0.00039	7.74e-05 ± 7.6e-06
A39C A53C	0.00121 ± 6.7e-05	2680 ± 240	7.25e-05 ± 1.1e-05	0.000221 ± 2.6e-05	0.000595 ± 6.8e-05	0.000957 ± 0.0001	2.09e-05 ± 8.9e-06
G35A G43C	< 1e-05		< 1e-05			< 1e-05	
A36C U46C	< 1e-05			< 1e-05		< 1e-05	< 1e-05
